B1: Hpep1 (peptide)
peptide: ARETFQAFRT
notes: Residues 145-154 of HaloTag; also called original Halo-Peptide; original Hpep (10mer)

How the values were obtained:
LKPG-cpHaloΔ2-PDYE = assay: cell-based or functional assay
cpHaloΔ2 = biological target: T1, cpHaloΔ2; assay: EC50 of the split-HaloTag labeling reaction (fluorescence polarization)
T1 construct: also called linker04/E20S/N119H/V184E/V197K; improved cpHaloΔ variant

cpHaloΔ = biological target: T2, cpHaloΔ; assay: method not stated
T2 construct: Used as purified protein; also called original cpHaloΔ; first partial effector
T2 sequence (chain, as listed by the source mutant): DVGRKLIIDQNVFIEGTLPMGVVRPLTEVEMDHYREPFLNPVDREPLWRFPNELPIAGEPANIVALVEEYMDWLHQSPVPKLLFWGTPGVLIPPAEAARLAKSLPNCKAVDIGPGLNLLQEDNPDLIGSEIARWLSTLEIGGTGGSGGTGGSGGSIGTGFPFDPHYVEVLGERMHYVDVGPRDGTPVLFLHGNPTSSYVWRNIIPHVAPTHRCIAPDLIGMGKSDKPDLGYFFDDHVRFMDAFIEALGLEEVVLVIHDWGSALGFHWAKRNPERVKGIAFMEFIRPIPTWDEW

T1 sequence (chain, as listed by the source mutant): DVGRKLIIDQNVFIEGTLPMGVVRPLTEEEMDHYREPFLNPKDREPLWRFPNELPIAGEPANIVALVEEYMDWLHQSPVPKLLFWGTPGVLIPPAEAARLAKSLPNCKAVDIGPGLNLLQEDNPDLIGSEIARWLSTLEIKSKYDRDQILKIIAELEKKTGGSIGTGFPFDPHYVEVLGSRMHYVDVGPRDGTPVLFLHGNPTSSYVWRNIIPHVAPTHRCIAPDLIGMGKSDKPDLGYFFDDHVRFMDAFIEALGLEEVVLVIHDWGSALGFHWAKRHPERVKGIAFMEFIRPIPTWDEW
Sequence of LKPG-cpHaloΔ2-PDYE (chain, as listed by the source mutant): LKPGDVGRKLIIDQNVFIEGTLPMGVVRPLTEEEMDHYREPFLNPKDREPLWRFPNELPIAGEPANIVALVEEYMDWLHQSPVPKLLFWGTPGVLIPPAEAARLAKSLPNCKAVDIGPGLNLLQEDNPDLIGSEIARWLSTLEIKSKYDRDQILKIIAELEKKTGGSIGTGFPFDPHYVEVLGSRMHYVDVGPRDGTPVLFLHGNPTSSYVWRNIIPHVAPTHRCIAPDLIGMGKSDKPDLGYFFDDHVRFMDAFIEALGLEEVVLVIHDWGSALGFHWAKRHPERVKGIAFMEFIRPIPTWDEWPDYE

Binder | EC50 of the labeling reaction (LKPG-cpHaloΔ2-PDYE) [µM] | fold lower EC50 than cpHaloΔ2 (LKPG-cpHaloΔ2-PDYE) [fold] | binding result (cpHaloΔ2) | Kd (cpHaloΔ) [µM]
RGWSWREMFRLFRT [Hpep RGWSWREMFRLFRT] | 0.000382 | 6.6 | binds | 
RMWTWREMFRLFRT [Hpep RMWTWREMFRLFRT] |  |  | binds | 
RQWSWREMFRLFRT [Hpep RQWSWREMFRLFRT] |  |  | binds | 
B1 |  |  |  | 4600
